Test results as given in publication PMC10899793, “Toxin release by conditional remodelling of ParDE1 from Mycobacterium tuberculosis leads to gyrase inhibition” (Nucleic Acids Research, 2023).

Experiments:
[1] = target: ParE2 toxin of Mycobacterium tuberculosis H37Rv (Mycobacterium tuberculosis H37Rv) (UniProt P9WHG5); assay: crystal structure
[2] = target: ParE2 toxin of Mycobacterium tuberculosis H37Rv (Mycobacterium tuberculosis H37Rv) (UniProt P9WHG5); assay: SEC

Work on “ParD2 antitoxin of Mycobacterium tuberculosis H37Rv (natural protein)” yielded a stoichiometry N (ParD2 per ParE2 (1:1 heterodimer)) [1] of 1 and a stoichiometry N (ParD2 per ParE2 (2:2 heterotetramer)) [2] of 1.
